Assay results taken from publication PMC5336313.

Test: anti-Myc western blot of cell extracts and culture media
Details: glycan lost; control: wild-type C-terminally tagged full-length PEBP4

B1: human PEBP4 (hPEBP4): T171A (protein)
parent chain: MGWTMRLVTAALLLGLMMVVTGDEDENSPCAHEALLDEDTLFCQGLEVFYPELGNIGCKVVPDCNNYRQKITSWMEPIVKFPGAVDGATYILVMVDPDAPSRAEPRQRFWRHWLVTDIKGADLKKGKIQGQELSAYQAPSPPAHSGFHRYQFFVYLQEGKVISLLPKENKTRGSWKMDRFLNRFHLGEPEASTQFMTQNYQDSPTLQAPRERASEPKHKNQAEIAAC
**Q.** With B1 as the protein, how does the expression_or_secretion read?
**A.** no change
